# Measurements from US20260217779A1 (Chugai, published 2026).
# T1: human CXCR3 (hCXCR3) on Ba/F3 transfectant cells (human, UniProt P49682 1-368)
# T1 sequence: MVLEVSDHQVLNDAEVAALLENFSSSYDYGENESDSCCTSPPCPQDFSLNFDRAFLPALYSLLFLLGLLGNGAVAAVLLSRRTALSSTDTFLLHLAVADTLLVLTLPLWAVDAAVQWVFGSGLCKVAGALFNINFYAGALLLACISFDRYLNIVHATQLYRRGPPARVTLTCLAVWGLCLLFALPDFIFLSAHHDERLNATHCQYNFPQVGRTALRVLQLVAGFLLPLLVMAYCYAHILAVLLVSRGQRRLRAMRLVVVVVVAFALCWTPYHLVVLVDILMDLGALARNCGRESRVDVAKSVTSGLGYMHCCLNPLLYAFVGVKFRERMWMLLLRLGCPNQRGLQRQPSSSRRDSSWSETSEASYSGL
# Target: T1, human CXCR3 (hCXCR3) on Ba/F3 …
# Assay: cell-based or functional assay
Activity retention rate at 33 nM,Activity retention rate at 100 nM,Activity retention rate at 300 nM,Luminescence value at 33 nM,Luminescence value at 100 nM,Luminescence value at 300 nM,Binder
84%,89%,82%,6.46e+06,1.49e+07,1.02e+07,hCXCL11.0051-G1T4k.one//VHn-G1T4h.one.H435R (Fc fusion) chain 1: FPPMFKRGRCLCIGPGVKAVKVADIEKASIMYPSNNCDKIEVIITLKENKGQRCLNPKSKQARLIIKKVERKNFEPKSSDKTHTCPPCPAPELRRGPSVFLFPPKPKDTLMISRTPEVTCVVVDVSHEDPEVKFNWYVDGVEVHNAKTKPREEQYNSTYRVVSVLTVLHQDWLNGKEYKCKVSNKGLPSSIEKTISKAKGQPREPQVCTLPPSREEMTKNQVSLWCLVKGFYPSDIAVEWESNGQPENNYKTTPPVLDSDGSFFLYSKLTVDKSRWQEGNVFSCSVMHEALHNHYTQKSLSLSP chain 2: EPKSSDKTHTCPPCPAPELRRGPSVFLFPPKPKDTLMISRTPEVTCVVVDVSHEDPEVKFNWYVDGVEVHNAKTKPREEQYNSTYRVVSVLTVLHQDWLNGKEYKCKVSNKGLPSSIEKTISKAKGQPREPQVYTLPPSRCEMTKNQVSLSCAVKGFYPSDIAVEWESNGQPENNYKTTPPVLDSDGSFFLVSKLTVDKSRWQEGNVFSCSVMHEALHNRYTQKSLSLSP
8%,26%,60%,595000,4.26e+06,7.43e+06,hCXCL11.0053-G1T4k.one//VHn-G1T4h.one.H435R (Fc fusion) chain 1: FRPMFKRGRCLCIGPGVKAVKVADIEKASIMYPSNNCDKIEVIITLKENKGQRCLNPKSKQARLIIKKVERKNFEPKSSDKTHTCPPCPAPELRRGPSVFLFPPKPKDTLMISRTPEVTCVVVDVSHEDPEVKFNWYVDGVEVHNAKTKPREEQYNSTYRVVSVLTVLHQDWLNGKEYKCKVSNKGLPSSIEKTISKAKGQPREPQVCTLPPSREEMTKNQVSLWCLVKGFYPSDIAVEWESNGQPENNYKTTPPVLDSDGSFFLYSKLTVDKSRWQEGNVFSCSVMHEALHNHYTQKSLSLSP chain 2: EPKSSDKTHTCPPCPAPELRRGPSVFLFPPKPKDTLMISRTPEVTCVVVDVSHEDPEVKFNWYVDGVEVHNAKTKPREEQYNSTYRVVSVLTVLHQDWLNGKEYKCKVSNKGLPSSIEKTISKAKGQPREPQVYTLPPSRCEMTKNQVSLSCAVKGFYPSDIAVEWESNGQPENNYKTTPPVLDSDGSFFLVSKLTVDKSRWQEGNVFSCSVMHEALHNRYTQKSLSLSP
42%,63%,51%,3.24e+06,1.05e+07,6.34e+06,hCXCL11.0054-G1T4k.one//VHn-G1T4h.one.H435R (Fc fusion) chain 1: FSPMFKRGRCLCIGPGVKAVKVADIEKASIMYPSNNCDKIEVIITLKENKGQRCLNPKSKQARLIIKKVERKNFEPKSSDKTHTCPPCPAPELRRGPSVFLFPPKPKDTLMISRTPEVTCVVVDVSHEDPEVKFNWYVDGVEVHNAKTKPREEQYNSTYRVVSVLTVLHQDWLNGKEYKCKVSNKGLPSSIEKTISKAKGQPREPQVCTLPPSREEMTKNQVSLWCLVKGFYPSDIAVEWESNGQPENNYKTTPPVLDSDGSFFLYSKLTVDKSRWQEGNVFSCSVMHEALHNHYTQKSLSLSP chain 2: EPKSSDKTHTCPPCPAPELRRGPSVFLFPPKPKDTLMISRTPEVTCVVVDVSHEDPEVKFNWYVDGVEVHNAKTKPREEQYNSTYRVVSVLTVLHQDWLNGKEYKCKVSNKGLPSSIEKTISKAKGQPREPQVYTLPPSRCEMTKNQVSLSCAVKGFYPSDIAVEWESNGQPENNYKTTPPVLDSDGSFFLVSKLTVDKSRWQEGNVFSCSVMHEALHNRYTQKSLSLSP
77%,90%,67%,5.88e+06,1.51e+07,8.33e+06,hCXCL11.0052-G1T4k.one//VHn-G1T4h.one.H435R (Fc fusion) chain 1: FQPMFKRGRCLCIGPGVKAVKVADIEKASIMYPSNNCDKIEVIITLKENKGQRCLNPKSKQARLIIKKVERKNFEPKSSDKTHTCPPCPAPELRRGPSVFLFPPKPKDTLMISRTPEVTCVVVDVSHEDPEVKFNWYVDGVEVHNAKTKPREEQYNSTYRVVSVLTVLHQDWLNGKEYKCKVSNKGLPSSIEKTISKAKGQPREPQVCTLPPSREEMTKNQVSLWCLVKGFYPSDIAVEWESNGQPENNYKTTPPVLDSDGSFFLYSKLTVDKSRWQEGNVFSCSVMHEALHNHYTQKSLSLSP chain 2: EPKSSDKTHTCPPCPAPELRRGPSVFLFPPKPKDTLMISRTPEVTCVVVDVSHEDPEVKFNWYVDGVEVHNAKTKPREEQYNSTYRVVSVLTVLHQDWLNGKEYKCKVSNKGLPSSIEKTISKAKGQPREPQVYTLPPSRCEMTKNQVSLSCAVKGFYPSDIAVEWESNGQPENNYKTTPPVLDSDGSFFLVSKLTVDKSRWQEGNVFSCSVMHEALHNRYTQKSLSLSP

# The remaining lines, values behind:
Binder,Activity retention rate at 33 nM,Activity retention rate at 100 nM,Activity retention rate at 300 nM,Luminescence value at 33 nM,Luminescence value at 100 nM,Luminescence value at 300 nM
hCXCL11.0047-G1T4k.one//VHn-G1T4h.one.H435R (Fc fusion) chain 1: FKPMFKRGRCLCIGPGVKAVKVADIEKASIMYPSNNCDKIEVIITLKENKGQRCLNPKSKQARLIIKKVERKNFEPKSSDKTHTCPPCPAPELRRGPSVFLFPPKPKDTLMISRTPEVTCVVVDVSHEDPEVKFNWYVDGVEVHNAKTKPREEQYNSTYRVVSVLTVLHQDWLNGKEYKCKVSNKGLPSSIEKTISKAKGQPREPQVCTLPPSREEMTKNQVSLWCLVKGFYPSDIAVEWESNGQPENNYKTTPPVLDSDGSFFLYSKLTVDKSRWQEGNVFSCSVMHEALHNHYTQKSLSLSP chain 2: EPKSSDKTHTCPPCPAPELRRGPSVFLFPPKPKDTLMISRTPEVTCVVVDVSHEDPEVKFNWYVDGVEVHNAKTKPREEQYNSTYRVVSVLTVLHQDWLNGKEYKCKVSNKGLPSSIEKTISKAKGQPREPQVYTLPPSRCEMTKNQVSLSCAVKGFYPSDIAVEWESNGQPENNYKTTPPVLDSDGSFFLVSKLTVDKSRWQEGNVFSCSVMHEALHNRYTQKSLSLSP,5%,22%,52%,391000,3.72e+06,6.48e+06
hCXCL11.0050-G1T4k.one//VHn-G1T4h.one.H435R (Fc fusion) chain 1: FNPMFKRGRCLCIGPGVKAVKVADIEKASIMYPSNNCDKIEVIITLKENKGQRCLNPKSKQARLIIKKVERKNFEPKSSDKTHTCPPCPAPELRRGPSVFLFPPKPKDTLMISRTPEVTCVVVDVSHEDPEVKFNWYVDGVEVHNAKTKPREEQYNSTYRVVSVLTVLHQDWLNGKEYKCKVSNKGLPSSIEKTISKAKGQPREPQVCTLPPSREEMTKNQVSLWCLVKGFYPSDIAVEWESNGQPENNYKTTPPVLDSDGSFFLYSKLTVDKSRWQEGNVFSCSVMHEALHNHYTQKSLSLSP chain 2: EPKSSDKTHTCPPCPAPELRRGPSVFLFPPKPKDTLMISRTPEVTCVVVDVSHEDPEVKFNWYVDGVEVHNAKTKPREEQYNSTYRVVSVLTVLHQDWLNGKEYKCKVSNKGLPSSIEKTISKAKGQPREPQVYTLPPSRCEMTKNQVSLSCAVKGFYPSDIAVEWESNGQPENNYKTTPPVLDSDGSFFLVSKLTVDKSRWQEGNVFSCSVMHEALHNRYTQKSLSLSP,30%,51%,64%,2.32e+06,8.49e+06,7.92e+06
hCXCL11.0049-G1T4k.one//VHn-G1T4h.one.H435R (Fc fusion) chain 1: FMPMFKRGRCLCIGPGVKAVKVADIEKASIMYPSNNCDKIEVIITLKENKGQRCLNPKSKQARLIIKKVERKNFEPKSSDKTHTCPPCPAPELRRGPSVFLFPPKPKDTLMISRTPEVTCVVVDVSHEDPEVKFNWYVDGVEVHNAKTKPREEQYNSTYRVVSVLTVLHQDWLNGKEYKCKVSNKGLPSSIEKTISKAKGQPREPQVCTLPPSREEMTKNQVSLWCLVKGFYPSDIAVEWESNGQPENNYKTTPPVLDSDGSFFLYSKLTVDKSRWQEGNVFSCSVMHEALHNHYTQKSLSLSP chain 2: EPKSSDKTHTCPPCPAPELRRGPSVFLFPPKPKDTLMISRTPEVTCVVVDVSHEDPEVKFNWYVDGVEVHNAKTKPREEQYNSTYRVVSVLTVLHQDWLNGKEYKCKVSNKGLPSSIEKTISKAKGQPREPQVYTLPPSRCEMTKNQVSLSCAVKGFYPSDIAVEWESNGQPENNYKTTPPVLDSDGSFFLVSKLTVDKSRWQEGNVFSCSVMHEALHNRYTQKSLSLSP,66%,90%,75%,5.1e+06,1.5e+07,9.32e+06
hCXCL11.0048-G1T4k.one//VHn-G1T4h.one.H435R (Fc fusion) chain 1: FLPMFKRGRCLCIGPGVKAVKVADIEKASIMYPSNNCDKIEVIITLKENKGQRCLNPKSKQARLIIKKVERKNFEPKSSDKTHTCPPCPAPELRRGPSVFLFPPKPKDTLMISRTPEVTCVVVDVSHEDPEVKFNWYVDGVEVHNAKTKPREEQYNSTYRVVSVLTVLHQDWLNGKEYKCKVSNKGLPSSIEKTISKAKGQPREPQVCTLPPSREEMTKNQVSLWCLVKGFYPSDIAVEWESNGQPENNYKTTPPVLDSDGSFFLYSKLTVDKSRWQEGNVFSCSVMHEALHNHYTQKSLSLSP chain 2: EPKSSDKTHTCPPCPAPELRRGPSVFLFPPKPKDTLMISRTPEVTCVVVDVSHEDPEVKFNWYVDGVEVHNAKTKPREEQYNSTYRVVSVLTVLHQDWLNGKEYKCKVSNKGLPSSIEKTISKAKGQPREPQVYTLPPSRCEMTKNQVSLSCAVKGFYPSDIAVEWESNGQPENNYKTTPPVLDSDGSFFLVSKLTVDKSRWQEGNVFSCSVMHEALHNRYTQKSLSLSP,52%,75%,72%,3.97e+06,1.25e+07,8.95e+06
